B1: Pistol ribozyme (parent)
chain: GGGUCGUUGUUCCAUAAUCGCGUGGAUAUGGCACGCAAGUUUCUACCGGGCACCGUAAAUGUCCGACUGGAGCCGUUCGGGCGGCUAUAAACAGACCUCAGGCCCGAAGCGUGGCGGCACCUGCCGCCGGUGGUAAAAAAGAUCGGAAGAGCACACGUCU

Variants of: B1
Test: aptazyme ON/OFF ratio, guanine; higher = stronger switching; co-transcriptional cleavage with and without guanine

Variant	aptazyme ON/OFF ratio
U7C U8G G9U U10G U11G C12A C13G	1.05
U7C U8A G9U U10C U11C C12U	1.08
U10A C12A C13U	1.31
U7C U8G U11A C13A	1.07
U7C U8C G9U U11A C13A	1.17
U8A G9U U10C C12G	1.04
U7G U8G G9U U10C U11G C12G C13U	1.26
U7C U8C G9U U10G U11G C12U	1.1
U7A U8C C12G C13A	1.18
U7G U10A U11G C12G C13U	1.63
U7G U8G U10A U11G C12A C13A	1.05
U8A U10G U11G C12G	1.23
U7C U10A U11C C12G C13G	1.31
U7A U8G G9U U10A U11C C12G	1.43
U7C U8C G9U U10G U11A C13U	1.17
U7G U8A G9U U10A U11A C13A	1.13
U8C U10A C12U	1.1
U7C U8A G9A U10C U11C C12A	1.09
G9A U10C U11C C12U	1.06
U7G G9C U10G U11C C12G C13U	1.21
U10G U11A C12G C13G	1.34

Variant	aptazyme ON/OFF ratio
U7G U8G G9U U10C U11A C12G C13U	1.45
U7G U8C G9U C12A	1.35
U7C U8C G9A U10C U11C C12A C13G	1.17
U7G U8G G9A U10C C12U C13U	1.29
U7G G9U U10A C12G C13U	1.4
U7C U8A G9A U11A C12G C13A	1.15
U8G U11C C12A C13U	1.14
U7G U8C G9C U11A C13G	1.06
G9A U10C U11A C13U	1.3
U7A U8A G9A U10G U11C C12G C13U	1.31
U7A U8A G9A U10A U11A C13A	1.16
U8A G9U C13U	1.4
U7A G9U U10A U11C C12G C13G	1.06
U8C U11C C12A C13G	1.4
U8C G9U U10G U11C C12A C13G	1.19
U7G U11G C12G	1.23
U7C G9C U10G U11G C13U	1.09
U8C G9U U10G C12U C13G	1.11
U8G G9A U10G C12A C13U	1.45
U8C U10G C12U C13G	1.11
U7C U8G G9A U11C C13G	1.02

Variant	aptazyme ON/OFF ratio
U7C U8G U10G U11A C13A	1.18
U7C U8A G9U U10G U11G C12U C13A	1.11
U7G U8A G9C U10G U11A C12A C13G	0.999
U7G U8A G9U U10G U11C C12U	1.05
U7G G9C U10C U11A	1.65
U7G U10A C13U	1.16
U7A U8C G9C U10G U11G	1.06
U7A U8A U10C U11G C12A C13U	1.12
U8C G9U U10G U11G C12U C13G	1.08
U8G G9C U10C U11G C12U C13G	1.1
U7C U10C U11C	1.74
U7A U8C G9U U11G C12A C13A	1.22
U7A U10G U11A C12A C13G	1.11
U10G C12G C13U	1.34
U7A U8A U10C U11C C12G	1.2
U8C U10G U11G C12U C13U	1.23
U8C G9U U10G U11A	1.13
U7G U8C U10A	1.33
U7A G9U U10G C12A C13G	1.13
U7A U8G G9U U11G C12U C13U	1.29
U8G G9U U10A U11A C13G	1.09

Variant	aptazyme ON/OFF ratio
U7G U8C G9A U10A U11A C12A C13U	1.17
U7C U8G G9A U10A C12A	1.26
U7G U8A G9A U10G C12A C13U	1.37
U8A G9U U11A C13G	1.13
U7C G9A U10C U11C C13A	1.01
U7G U8A G9C U10G C12G	1.06
U7G U10C U11G C12A C13A	1.11
U7A U8C G9A U11G C12U C13U	1.32
U8G G9U U10A C12U	1.11
G9A U11G C12G C13G	1.3
U7C U8C G9U U11A C12A	1.21
U10G C13A	1.13
U7C U8A U11A C13U	1.12
G9U U11A C12G	1.55
U8G G9U U10C U11A C12A C13G	1.08
U7G U8C G9U U10G U11G C12A C13U	1.34
U7G U8C U10A U11G C13U	1.23
U8G G9A U10G U11G C12A C13U	1.41
U7A U8C U10G U11C C13U	1.27
U8C G9A U11C C12U C13A	1.16

— the RNAGym collection of RNA variant scans (doi:10.1021/acssynbio.7b00057)
